Test results taken from the supplement of paper PMC12636428.

The sequences below were run on Saccharomyces cerevisiae (assay: transcriptional activation domain activity (GFP:mCherry ratio, weighted mean of sorted bins, harmonized to initial dataset scale) (arbitrary fluorescence ratio units); higher = stronger transcriptional activation). Settings: beta-estradiol 1 µM; induction time 4 h.
Outline: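 In diploid yeast carrying a GFP reporter, barcoded protein tiles fused to an estradiol-inducible synthetic transcription factor were integrated at the URA3 locus. Cultures diluted 1:5 into SC with 1 uM beta-estradiol were kept at 30 °C for 4 hours, then sorted by GFP:mCherry ratio into 8 bins before barcode sequencing. Tiles with under 50 reads were excluded. The activation activity reported here is the read-weighted mean of bin median fluorescence, averaged across barcodes and linearly rescaled to the initial dataset.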

Sequence	transcriptional activation domain activity
MGGAGDKVLICNCSSTDSFLRMFLLILVFFLIILLVCMDWSLRFLMMFVFLLV	19800
MGGCICLRWSCVNVFFSFVYSFGLACCFTSWEYGGVYLGEGGCFLFYLSFFFL	50500
MGGFFLFFFFFSFVDSFGVVYDMDMRSGGVFFFLPFLSTLFFLLLLGSVLFSC	71600
MGGFVYAYCSAQSLTLLPWLLFFDYLFFSFLCILNYISFLFFYFLGFEVGWVI	71200
MGGGCLYIILFLLRTTLGVMWVFFCLLFYLFLFWFSKSLIFFSLFLVLIPSYF	36500
MGGGGGACSCSIAYIHGFLSSLFFLLFATTFFHYSFCLLLLWMLIFFWLFAFV	< 6570
MGGGVWEPVLDVWLFSFFFSLYTSFFIGFGSLSFFPSYLVCFFFISFPPHFLL	53400
MGGGVYVCRSGAVYLFWVLLFYGLMFLTVDVITYLLAYLTLPMYLFFLLLVSF	39200
MGGKASWCVFSFCLLFPLYFLLSLPPSFFIFHFYCVLALLPLPLPFPFFPSIC	58700
MGGVFWKWKRGVWMVRFFRVFLQIFLADIGLILLVFWHYIVCLCYFLFFLVGI	52500
MGGVVWCFYRVFLFPFLLSPIIPSLLLSSLHTFPLSLTFTFTFILCRMFYVCT	53500
MGGVWGFLWSFFFLFPLFFFSLSKDGLDCFISFILVSFYFFSFLFCIHVFFFS	15600
MGGYLFHLLFFSFFLFSSLLRVYYYIVDMGGVLSLLYRFFLLLVTIFVRCIIF	57100
MGIGIHTFFYFWLLIFLFLFLFLFFSWFFFFVIVIIFFNYFIFLRAWMWIAGL	41600
MGIIIVVCVFFFLTGFLFTLVFLLSLWSLFVFFYFINFSFPLSFALLLLIFFL	40500
MGIIIVVCVFFLFDRFSFLSCFSSFSLELIRFFIFILLTFLSFCHSPFYLFFF	60900
MGIRYHWLVFFCPFFSFTFASCFVLFVGMLFCFIILDYGCFSFLPLWFFFCPE	18700
MGKGGYGEQRGGGRGGFRGGRGGGRGGFGGGGFNQGPPSEVVVVGAFVSACEG	56800
MGKGGYGEQRGGGRGGFRGGRGGGRGGFGGGGFNQGPPSEVVVVGTFVSACEG	58400
MGKKRCLERILFLFLYAILFHILLLLLPSFPFLYLYTFAFVFYFSLSIYLVSL	43600
MGKRRRLLAKAQPKSGGSTSAKHHPQQGTGKAVAARGQKPQKQQGAPRNGSNG	21900

Sequence	transcriptional activation domain activity
MGLANGDALITECGGVTFGFGFFLIFVGFWIGLDQVDGVWFLTLVWLLALFFL	53900
MGLGFFSFFLSVFSFFLFPFFFFGCEFIYLFLVFWWRVDFSPMAERHSVEAGP	53000
MGLGVLYHLSLLFPFLFFFLSLLFFSLLSSSFFLLWLFPISCLGFIVLFWTGS	22200
MGLGVLYHLSLLFPFLFFFLYLSSSFPSFLILFFFFFGYSPSAVWVFLFCFGQ	58100
MGLGVLYHLSLLFPSFSFFYLSSSFPPFFFFFLLLWLFPISCLGFLVLFWTGS	61300
MGLIIYLGHMGCLMPRDDPTLFTIIHTNGIHHVCIVFCSCAISVHPWQQLLCH	29000
MGLIYLYFIFFINLLIWFSVVFCELYFFFFCLCLSNCIFEIYFYVLFFNIFLY	51000
MGLKGLLRSTIYVSSLVWLGWVVNLGQFLLFPFYSVTLKLSYNVNACIISVLV	68500
MGLLCFVFVLHSVFFIFNALSFLPWFVFLKIKFIFLCLSSFGRVFSSFIYMIF	53000
MGLLGGRRAADYYLFLFFLFFFYLSLFSPRFSSFLHFPSYIELVGFFFFLLRL	36700
MGLLVIMEVVFCVINLDALFFFLLSLLLLFLTFFSFFRIMMEFIVFLHVSFYF	61400
MGLNLLVCIILVLHYFSTLLISFYFLLTVHTFRHIFAHSHSPVCMCLIFLTII	50200
MGLPYFWFYKHTCFSVNYVSSLFVLFFFYFLVGVVGYVTMGLVIFFLFFFLFF	70300
MGLRTTPDYQKVEFTVTDIGLILKTLWICADLITFLFPLQRLVFHALVLLFSF	62300
MGLSDWPRVLSWHASISLVYLPFWVVVSLVWRYHIWTLSSVVLIIFIHIIFGL	31700
MGLSSSCFFLLLLVLSLFYYFFLSFFFIGHVAYFMTCGGLERAFLYLLLLLLL	49100
MGLTVFSILYIPLNIIPPFFCCCLYIYHCFSFFSSTFILFFFFFGTVFAQVIL	53200
MGLVYPCWLVFFGWFPSFLFLIFLSFIINFILVFSFLLFTFIPPLFSLLSVQF	37900
MGLWARFFCFVIVCFQITFLYCLFSFSPSFLDLQKTQPLFFTFFFFCSFPSFP	44200
MGLWARFFCFVIVCFQITFLYCLLSFSPSFLDLQKIQPLFFTFFFFLLLSLFP	43200
MGLWARFICFVIPLFFHYFPLFSFSFLLNIFPHYIYFFPTFYKSGPLFLCFFM	50500

Sequence	transcriptional activation domain activity
MGLWARFICFVIVCFQIISLYCLFSCSLFFLYLQKTQPHFFLLSLFPSSFPPS	62700
MGLWARFICFVIVCFQITFLYCLFSCSPSFLYFQKTQPLFFTFFFSFPSFLLL	56800
MGLWARFICFVIVCFQITFLYCLLSFSPSFLDLQKTQPLFFTFFFFLLLSLFP	60400
MGLWARFICFVIVCLQITSLYCLFSCSPSFLYFKKIQPLFFTFFFFLLSLFPS	52400
MGLYIFIFSFSFFLFFFFFFFFFFFVLGLVFVSMRTERLLSSQYFFFFWFFSG	27800
MGMAYGVCCMYFLEPWWVGAISLVRFLGVGVFTLCMYFPSIMIFYFLLFFIIF	51000
MGMEHLAQPDQPNKKKRRRQALSCTECKRRKIKCDRKQPCSPCTRRGEQAKCQ	29900
MGMEYIFCLSLSSWGYIFFSFHGFPLFLIFIFSFLARFFLLFFHLFFSFSFFA	65400
MGNFLYGFCVIFPYNLVYIIICYFGGITQVVNAGFGYMLLLIVLWTHGQLCLS	38600
MGNGSVLLFLLFLCYGKGLGFFIFTFFFLFYLCIIYFFFPLFYYYLPLLSAGW	67100
MGNGVRCLLFGKDFSFIFLLYRFSMWFLISPFQLPCWVLVILSCSCSSLSIFG	65700
MGNKQDGVSGLGFMLISFSCLLLEWLTCAVSSILLSSEFWELSLVCLTLFWFL	28900
MGNMGTCSFFFFFCWSSFFLCYFCVFPCVLSFQVEGLEAIFLPFTFFPFWFSL	57300
MGNVQRWAVAIKNVIAVLVVCLRFITDTFIIATSEYPRGGFLVLLHIRMLFML	81400
MGPISFFFLFWRYYRLYCLFFVFFFFSTGLRWHDTLFHFLSFLLLGLPLLKRS	82100
MGPMMQQIQQPCGDCRGEGEIINAKDKCKACNARKVTQTRKVLEVHIDRGMKD	45700
MGPPFFDGFSDGSSDLGSLFLPNGDSANWDLSWSAETFWQLENEYTSLPSFFD	144000
MGPWICQTQPTSYLILSGLVHSFLKSSQGFISYIFSTLVHMTFLVFLYIHLFR	58800
MGQVGVFALHKVLYGIIPLFEIQTCSFYPLLVSLWHIFYLLVYIVMFMRLIIL	72300
